Results as given in EP2848684A1.

Molecular target: NifDK complex purified from Azotobacter vinelandii (Azotobacter vinelandii) (UniProt P07328)
Test: cell-based or functional assay

Chain of UniProt P07328 (P07328 2-492 limits assumed, chain 1 of 2): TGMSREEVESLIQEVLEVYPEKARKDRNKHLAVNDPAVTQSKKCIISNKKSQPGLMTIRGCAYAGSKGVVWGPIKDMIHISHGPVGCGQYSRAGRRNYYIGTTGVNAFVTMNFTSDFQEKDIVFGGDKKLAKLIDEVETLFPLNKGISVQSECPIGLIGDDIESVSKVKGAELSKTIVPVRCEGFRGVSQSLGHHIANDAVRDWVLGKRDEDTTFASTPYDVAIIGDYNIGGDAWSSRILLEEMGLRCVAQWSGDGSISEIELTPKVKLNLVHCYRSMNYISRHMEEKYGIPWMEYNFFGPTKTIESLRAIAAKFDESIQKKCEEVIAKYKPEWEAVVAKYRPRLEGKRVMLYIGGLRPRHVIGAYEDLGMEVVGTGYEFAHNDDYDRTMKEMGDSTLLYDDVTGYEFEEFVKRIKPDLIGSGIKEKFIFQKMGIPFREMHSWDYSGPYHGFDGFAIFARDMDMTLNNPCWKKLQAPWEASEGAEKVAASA
Chain of UniProt P07328 (P07329 2-523 limits assumed, chain 2 of 2, further chain): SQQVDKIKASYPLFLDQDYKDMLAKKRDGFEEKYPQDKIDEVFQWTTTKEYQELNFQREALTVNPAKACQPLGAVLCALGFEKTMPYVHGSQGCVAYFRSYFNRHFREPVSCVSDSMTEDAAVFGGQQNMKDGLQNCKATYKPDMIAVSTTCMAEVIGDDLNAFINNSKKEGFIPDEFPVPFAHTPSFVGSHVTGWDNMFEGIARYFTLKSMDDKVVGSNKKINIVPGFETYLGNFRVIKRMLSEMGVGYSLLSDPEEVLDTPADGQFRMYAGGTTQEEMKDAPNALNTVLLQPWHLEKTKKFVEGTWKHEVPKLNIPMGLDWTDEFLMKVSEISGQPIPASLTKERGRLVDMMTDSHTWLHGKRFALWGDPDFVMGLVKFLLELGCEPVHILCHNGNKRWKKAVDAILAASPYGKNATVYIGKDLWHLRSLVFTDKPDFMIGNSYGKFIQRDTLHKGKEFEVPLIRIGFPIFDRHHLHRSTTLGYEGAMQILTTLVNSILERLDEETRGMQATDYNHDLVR

| Ammonia | RFU (Relative Fluorescence Units, ammonia detection) | Substance |
| --- | --- | --- |
| 179 nmol/mL | 1300 RFU | NifH protein purified from Azotobacter vinelandii (from UniProt P00459 2-290) (enzyme) |
| 200 nmol/mL | 1460 RFU | NifH purified from recombinant Saccharomyces cerevisiae GF2 cells (mlsSOD2-his8-NifH, A. vinelandii NifH sequence) (from UniProt P00459 1-290) (enzyme) |
